These results are taken from paper PMC12344693, “Human Milk Oligosaccharides Multivalently Presented on Defined Synthetic Neo-Glycoproteins Are Nanomolar Ligands of Tandem-Repeat Galectins” (Biomacromolecules, 2025).

Where two headings read alike, the source gives them in different places.

Experiment [1] has as its target T1, Gal-4N (Homo sapiens, UniProt P56470).
T1 construct: Tandem-repeat galectins consist of an N-terminal and a C-terminal carbohydrate recognition domain (CRD) interconnected with a peptide linker; His-tag; made in house; host or cells: E. coli
T1 sequence (P56470 19-150 limits assumed): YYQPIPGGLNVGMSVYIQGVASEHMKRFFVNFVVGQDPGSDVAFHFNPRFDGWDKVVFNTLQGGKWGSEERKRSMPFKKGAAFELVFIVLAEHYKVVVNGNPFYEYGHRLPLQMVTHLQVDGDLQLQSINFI
Set-up: method as in ref 11 (a number printed in a supplementary file, which may have a reference list of its own: not looked up in the article's list). The note with it: direct ELISA; His-tagged Gal-4N; read-out: KD for ASF, His-tag; cited from earlier work. For orientation: ELISA stands for enzyme-linked immunosorbent assay.

For experiment [2], the target named is T2, Gal-9C (Homo sapiens, UniProt O00182, A222P).
T2 construct: Tandem-repeat galectins consist of an N-terminal and a C-terminal carbohydrate recognition domain (CRD) interconnected with a peptide linker; His-tag; made in house; host or cells: E. coli
Set-up: method as in ref 19 (a number printed in a supplementary file, which may have a reference list of its own: not looked up in the article's list). Particulars: direct ELISA; His-tagged Gal-9C; read-out: KD for ASF, His-tag; cited from earlier work.

The target of experiment [3] is T3, Gal-4C (Homo sapiens, UniProt P56470).
T3 construct: Tandem-repeat galectins consist of an N-terminal and a C-terminal carbohydrate recognition domain (CRD) interconnected with a peptide linker; His-tag; made in house; host or cells: E. coli
T3 sequence (P56470 194-323 limits assumed): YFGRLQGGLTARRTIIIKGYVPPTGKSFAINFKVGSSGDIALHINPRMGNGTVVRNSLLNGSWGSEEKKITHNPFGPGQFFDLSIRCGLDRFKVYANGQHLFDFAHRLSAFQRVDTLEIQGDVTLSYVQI
Also on record: method as in ref 11 (a number printed in a supplementary file, which may have a reference list of its own: not looked up in the article's list). Particulars: direct ELISA; His-tagged Gal-4C; read-out: KD for ASF, His-tag; cited from earlier work.

For experiment [4], the target named is T4, Gal-9 (Homo sapiens, UniProt O00182, A222P/DEL149-219).
T4 construct: Full-length recombinant human galectins (Gal-1, Gal-3, Gal-4, Gal-8, and Gal-9) for ELISA assays; made in house; host or cells: E. coli Rosetta 2(DE3)pLysS
Also on record: method as in ref 19 (a number printed in a supplementary file, which may have a reference list of its own: not looked up in the article's list). Particulars: direct ELISA; His-tagged Gal-9; read-out: KD for ASF, His-tag; cited from earlier work.

Experiment [5] addresses T5, Gal-8N (Homo sapiens, UniProt O00214).
T5 construct: Tandem-repeat galectins consist of an N-terminal and a C-terminal carbohydrate recognition domain (CRD) interconnected with a peptide linker; His-tag; made in house; host or cells: E. coli
T5 sequence (O00214 19-152 limits assumed): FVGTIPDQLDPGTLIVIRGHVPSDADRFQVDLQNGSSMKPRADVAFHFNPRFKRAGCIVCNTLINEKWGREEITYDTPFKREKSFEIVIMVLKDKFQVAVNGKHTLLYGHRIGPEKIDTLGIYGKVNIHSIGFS
Set-up: method as in ref 19 (a number printed in a supplementary file, which may have a reference list of its own: not looked up in the article's list). Particulars: direct ELISA; His-tagged Gal-8N; read-out: KD for ASF, His-tag; cited from earlier work.

For experiment [6], the target named is T6, Gal-8C (Homo sapiens, UniProt O00214).
T6 construct: Tandem-repeat galectins consist of an N-terminal and a C-terminal carbohydrate recognition domain (CRD) interconnected with a peptide linker; His-tag; made in house; host or cells: E. coli
T6 sequence (O00214 187-317 limits assumed): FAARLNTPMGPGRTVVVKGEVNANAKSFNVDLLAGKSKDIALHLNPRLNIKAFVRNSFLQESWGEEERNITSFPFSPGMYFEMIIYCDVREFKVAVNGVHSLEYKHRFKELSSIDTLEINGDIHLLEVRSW
Set-up: method as in ref 19 (a number printed in a supplementary file, which may have a reference list of its own: not looked up in the article's list). The note with it: direct ELISA; His-tagged Gal-8C; read-out: KD for ASF, His-tag; cited from earlier work.

Experiment [7] has as its target T7, Gal-8 (Homo sapiens, UniProt O00214).
T7 construct: Full-length recombinant human galectins (Gal-1, Gal-3, Gal-4, Gal-8, and Gal-9) for ELISA assays; made in house; host or cells: E. coli Rosetta 2(DE3)pLysS
T7 sequence (O00214 1-317): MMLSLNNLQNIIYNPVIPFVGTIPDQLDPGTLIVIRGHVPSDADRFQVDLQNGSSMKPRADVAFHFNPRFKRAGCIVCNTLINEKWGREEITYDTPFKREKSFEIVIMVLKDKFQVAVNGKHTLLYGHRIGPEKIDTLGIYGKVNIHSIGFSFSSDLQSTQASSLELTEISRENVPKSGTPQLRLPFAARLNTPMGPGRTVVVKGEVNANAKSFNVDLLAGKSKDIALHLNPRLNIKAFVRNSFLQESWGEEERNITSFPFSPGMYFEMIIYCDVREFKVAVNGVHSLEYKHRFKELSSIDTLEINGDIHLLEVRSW
Set-up: method as in ref 19 (a number printed in a supplementary file, which may have a reference list of its own: not looked up in the article's list). Particulars: direct ELISA; His-tagged Gal-8; read-out: KD for ASF, His-tag; cited from earlier work.

The target of experiment [8] is T8, Gal-4 (Homo sapiens, UniProt P56470).
T8 construct: Full-length recombinant human galectins (Gal-1, Gal-3, Gal-4, Gal-8, and Gal-9) for ELISA assays; made in house; host or cells: E. coli Rosetta 2(DE3)pLysS
T8 sequence (P56470 1-323): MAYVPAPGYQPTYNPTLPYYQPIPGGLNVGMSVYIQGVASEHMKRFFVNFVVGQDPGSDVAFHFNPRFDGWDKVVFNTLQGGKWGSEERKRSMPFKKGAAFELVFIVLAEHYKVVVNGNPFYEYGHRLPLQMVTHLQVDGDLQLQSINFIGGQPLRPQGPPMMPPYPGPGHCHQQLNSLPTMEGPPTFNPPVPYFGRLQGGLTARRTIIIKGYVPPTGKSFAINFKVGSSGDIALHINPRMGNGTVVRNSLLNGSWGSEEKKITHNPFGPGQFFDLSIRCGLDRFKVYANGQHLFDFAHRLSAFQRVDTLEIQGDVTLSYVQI
Also on record: method as in ref 11 (a number printed in a supplementary file, which may have a reference list of its own: not looked up in the article's list). Particulars: direct ELISA; His-tagged Gal-4; read-out: KD for ASF, His-tag; cited from earlier work.

In experiment [9] the target is T9, Gal-9N (Homo sapiens, UniProt O00182, DELINS149-222HPP).
T9 construct: Tandem-repeat galectins consist of an N-terminal and a C-terminal carbohydrate recognition domain (CRD) interconnected with a peptide linker; His-tag; made in house; host or cells: E. coli
Set-up: method as in ref 19 (a number printed in a supplementary file, which may have a reference list of its own: not looked up in the article's list). Particulars: direct ELISA; His-tagged Gal-9N; read-out: KD for ASF, His-tag; cited from earlier work.

Experiment [10] deals with T3, Gal-4C. Description: direct ELISA, galectin binding to immobilized asialofetuin. The note with it: AVI-tagged Gal-4C, read-out: KD for ASF, AVI-tag. The procedure:
(§1) detailed in the main text.
(§2) respective galectin in EPBS (50 μL/well).

For experiment [11], the target named is T8, Gal-4. The description is as above. The note with it: AVI-tagged Gal-4, read-out: KD for ASF, AVI-tag. Here is the method: as §1, §2
Experiment [12] deals with T1, Gal-4N. Described as above. The note with it: AVI-tagged Gal-4N, read-out: KD for ASF, AVI-tag. The procedure:
as §1, §2

Experiment [13] addresses T7, Gal-8. Described as above. Particulars: AVI-tagged Gal-8, read-out: KD for ASF, AVI-tag. Here is the method: as §1, §2
Experiment [14] addresses T6, Gal-8C. Described as above. The note with it: AVI-tagged Gal-8C, read-out: KD for ASF, AVI-tag. The procedure:
as §1, §2

For experiment [15], the target named is T5, Gal-8N. Described as above. The note with it: AVI-tagged Gal-8N, read-out: KD for ASF, AVI-tag. The procedure: as §1, §2
Experiment [16] has as its target T2, Gal-9C. The description is as above. The note with it: AVI-tagged Gal-9C, read-out: KD for ASF, AVI-tag. The procedure:
as §1, §2

Experiment [17] has as its target T4, Gal-9. Described as above. Particulars: AVI-tagged Gal-9, read-out: KD for ASF, AVI-tag. The procedure:
as §1, §2

Experiment [18] addresses T9, Gal-9N. The experiment is described as above. Particulars: AVI-tagged Gal-9N, read-out: KD for ASF, AVI-tag. Here is the method:
as §1, §2

T2 sequence (O00182 220-355 A222P): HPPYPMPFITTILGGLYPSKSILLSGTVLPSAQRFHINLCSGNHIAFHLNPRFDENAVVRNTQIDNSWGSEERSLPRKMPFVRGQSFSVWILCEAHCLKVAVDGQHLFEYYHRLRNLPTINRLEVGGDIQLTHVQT
T4 sequence (O00182 with tags, fused parts or gaps DEL149-219/A222P): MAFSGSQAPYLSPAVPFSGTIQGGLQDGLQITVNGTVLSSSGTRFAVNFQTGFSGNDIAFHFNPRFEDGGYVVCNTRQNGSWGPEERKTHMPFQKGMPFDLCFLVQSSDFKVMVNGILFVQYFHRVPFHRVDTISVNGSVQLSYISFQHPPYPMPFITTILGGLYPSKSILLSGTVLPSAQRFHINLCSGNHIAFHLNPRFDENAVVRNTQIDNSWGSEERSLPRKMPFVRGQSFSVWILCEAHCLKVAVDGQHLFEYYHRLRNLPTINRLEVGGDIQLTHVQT
T9 sequence (O00182 with tags, fused parts or gaps DELINS149-222HPP): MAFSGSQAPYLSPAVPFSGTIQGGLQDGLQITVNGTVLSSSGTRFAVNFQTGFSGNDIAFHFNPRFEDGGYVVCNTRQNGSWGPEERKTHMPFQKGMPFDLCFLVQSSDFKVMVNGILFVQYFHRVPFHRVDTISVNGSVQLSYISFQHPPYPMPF

With “ASF: asialofetuin, glycoprotein immobilized on ELISA plates as galectin ligand”, the Kd with Gal-4N [1] was 38 ± 3 µM; with Gal-9C [2], 3.6 ± 0.5 µM; in the experiment with Gal-4C [3], 19 ± 2 µM; in the experiment with Gal-9 [4] it was 0.15 ± 0.04 µM; in the experiment with Gal-8N [5], 2.3 ± 0.5 µM; with Gal-8C [6], 9.4 ± 0.4 µM. Also, the Kd with Gal-8 [7] was 0.14 ± 0.06 µM; in the experiment with Gal-4 [8] it was 3.3 ± 1.1 µM; with Gal-9N [9], 25 ± 6 µM; with Gal-4C [10], 6.5 ± 1.2 µM; with Gal-4 [11], 2.3 ± 0.8 µM; in the experiment with Gal-4N [12] it was 17 ± 2 µM. In addition, the Kd came out at 0.32 ± 0.13 µM in the experiment with Gal-8 [13]; 11 ± 2 µM with Gal-8C [14]; 4.6 ± 1.3 µM with Gal-8N [15]; 4.9 ± 0.4 µM in the experiment with Gal-9C [16]; 0.18 ± 0.05 µM with Gal-9 [17]; 11 ± 4 µM with Gal-9N [18].

In general, Kd refers to the concentration at which binding is half-saturated.
